Measurements: paper PMC5818171, “The role of conserved residues in Fdc decarboxylase in prenylated flavin mononucleotide oxidative maturation, cofactor isomerization, and catalysis” (The Journal of Biological Chemistry, 2017)

Key:
O=C(O)/C=C/c1ccccc1 = test: purified protein; conditions: 50 mM KCl, 50 mM NaPi, pH 6, 25 °C, prFMN holo-enzyme
A. niger Fdc1 = A. niger Fdc1 (Aspergillus niger, UniProt A2QHE5); conditions: purified and crystallized in the dark
purified protein = substrate: O=C(O)/C=C/c1ccccc1; test: purified protein; conditions: 50 mM KCl, 50 mM NaPi, pH 6, 25 °C, prFMN holo-enzyme; remark: listed apart in the source

Molecule | Km (O=C(O)/C=C/c1ccccc1) [µM] | kcat (O=C(O)/C=C/c1ccccc1) [s⁻¹] | crystal structure (A. niger Fdc1) | Km (purified protein) [µM] | kcat (purified protein) [s⁻¹]
A. niger Fdc1 (Aspergillus niger CBS 513.88; E282D) | 50 ± 10 | 0.63 ± 0.04 |  |  | 
A. niger Fdc1 (Aspergillus niger CBS 513.88) | 10.0 ± 0.6 | 9.4 ± 0.1 |  |  | 
Cc1cc2c3c(c1C)C(C)(C)CC=[N+]3c1c(nc([O-])[nH]c1=O)N2C[C@H](O)[C@H](O)[C@H](O)COP(=O)(O)O [prFMN^iminium] |  |  | the prFMN cofactor is exclusively in the iminium form |  | 
S. cerevisiae Fdc1 (Saccharomyces cerevisiae S288C) (protein) MRKLNPALEFRDFIQVLKDEDDLIEITEEIDPNLEVGAIMRKAYESHLPAPLFKNLKGASKDLFSILGCPAGLRSKEKGDHGRIAHHLGLDPKTTIKEIIDYLLECKEKEPLPPITVPVSSAPCKTHILSEEKIHLQSLPTPYLHVSDGGKYLQTYGMWILQTPDKKWTNWSIARGMVVDDKHITGLVIKPQHIRQIADSWAAIGKANEIPFALCFGVPPAAILVSSMPIPEGVSESDYVGAILGESVPVVKCETNDLMVPATSEMVFEGTLSLTDTHLEGPFGEMHGYVFKSQGHPCPLYTVKAMSYRDNAILPVSNPGLCTDETHTLIGSLVATEAKELAIESGLPILDAFMPYEAQALWLILKVDLKGLQALKTTPEEFCKKVGDIYFRTKVGFIVHEIILVADDIDIFNFKEVIWAYVTRHTPVADQMAFDDVTSFPLAPFVSQSSRSKTMKGGKCVTNCIFRQQYERSFDYITCNFEKGYPKGLVDKVNENWKRYGYK |  |  |  | 25.5 ± 3.6 | 10.5 ± 0.4
S. cerevisiae Fdc1 (Saccharomyces cerevisiae S288C; E285D) (protein) MRKLNPALEFRDFIQVLKDEDDLIEITEEIDPNLEVGAIMRKAYESHLPAPLFKNLKGASKDLFSILGCPAGLRSKEKGDHGRIAHHLGLDPKTTIKEIIDYLLECKEKEPLPPITVPVSSAPCKTHILSEEKIHLQSLPTPYLHVSDGGKYLQTYGMWILQTPDKKWTNWSIARGMVVDDKHITGLVIKPQHIRQIADSWAAIGKANEIPFALCFGVPPAAILVSSMPIPEGVSESDYVGAILGESVPVVKCETNDLMVPATSEMVFEGTLSLTDTHLEGPFGDMHGYVFKSQGHPCPLYTVKAMSYRDNAILPVSNPGLCTDETHTLIGSLVATEAKELAIESGLPILDAFMPYEAQALWLILKVDLKGLQALKTTPEEFCKKVGDIYFRTKVGFIVHEIILVADDIDIFNFKEVIWAYVTRHTPVADQMAFDDVTSFPLAPFVSQSSRSKTMKGGKCVTNCIFRQQYERSFDYITCNFEKGYPKGLVDKVNENWKRYGYK |  |  |  | 20.4 ± 3.6 | 0.28 ± 0.01
S. cerevisiae Fdc1 (Saccharomyces cerevisiae S288C; E280D) (protein) MRKLNPALEFRDFIQVLKDEDDLIEITEEIDPNLEVGAIMRKAYESHLPAPLFKNLKGASKDLFSILGCPAGLRSKEKGDHGRIAHHLGLDPKTTIKEIIDYLLECKEKEPLPPITVPVSSAPCKTHILSEEKIHLQSLPTPYLHVSDGGKYLQTYGMWILQTPDKKWTNWSIARGMVVDDKHITGLVIKPQHIRQIADSWAAIGKANEIPFALCFGVPPAAILVSSMPIPEGVSESDYVGAILGESVPVVKCETNDLMVPATSEMVFEGTLSLTDTHLDGPFGEMHGYVFKSQGHPCPLYTVKAMSYRDNAILPVSNPGLCTDETHTLIGSLVATEAKELAIESGLPILDAFMPYEAQALWLILKVDLKGLQALKTTPEEFCKKVGDIYFRTKVGFIVHEIILVADDIDIFNFKEVIWAYVTRHTPVADQMAFDDVTSFPLAPFVSQSSRSKTMKGGKCVTNCIFRQQYERSFDYITCNFEKGYPKGLVDKVNENWKRYGYK |  |  |  | 8.6 ± 1.5 | 0.92 ± 0.03
